Results as given in US20200247894A1 (Regeneron, published 2020).

Biological target: T1, human IL-2Rγ expressed on cells (human, UniProt P31785 23-369)
T1 construct: whole, on cells; on cells it stands together with the cytokine-specific receptor subunits; also called IL-2Rgamma; CD132
T1 sequence (looked up): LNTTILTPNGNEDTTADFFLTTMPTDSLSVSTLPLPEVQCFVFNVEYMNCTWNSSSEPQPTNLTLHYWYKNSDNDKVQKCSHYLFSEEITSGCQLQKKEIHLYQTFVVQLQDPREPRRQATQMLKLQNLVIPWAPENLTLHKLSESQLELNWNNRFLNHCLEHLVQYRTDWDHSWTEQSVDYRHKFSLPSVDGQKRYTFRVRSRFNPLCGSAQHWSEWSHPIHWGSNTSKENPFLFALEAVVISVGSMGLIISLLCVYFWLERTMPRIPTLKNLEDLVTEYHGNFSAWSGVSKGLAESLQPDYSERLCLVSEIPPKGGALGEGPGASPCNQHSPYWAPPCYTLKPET
Assay: flow cytometry on NK-92 cells, antibody at 10 µg/ml, MFI of sample over MFI of unstained; lower end, tied to H4H12859P by Table 9-1
Protocol: For flow cytometry analyses, the cells were pre-incubated with mouse IgG at 100 μg/ml for 15 minutes at room temperature (RT) to block the binding of the antibodies to Fc receptors. […] Cells were washed, fixed using BD CytoFix™ (BD biosciences, #554655) and analyzed on an IQue® (Intellicyt®) Flow Cytometer or Accuri Flow cytometer (BD). […] The results were analyzed using ForeCyt® (IntelliCyt®) software to determine the geometric means of fluorescence (MFI) for viable cells. Binding ratios were calculated by normalizing the MFI of the test sample by the MFI of the unstained sample.

B1: H4H12859P (antibody, human IgG4 S228P, kappa, V domains shown)
VH: QVQLVQSGAEVKKPGASVRVSCKASGYTFTDYDIHWVRQAPGHGLEWMGWINPNSGGTNYAQKFQGRVTMTRDTSISTVYMDLSRLRSDDTAVYYCARADYSSSYYYYGMDVWGQGTTVTVSS
VL: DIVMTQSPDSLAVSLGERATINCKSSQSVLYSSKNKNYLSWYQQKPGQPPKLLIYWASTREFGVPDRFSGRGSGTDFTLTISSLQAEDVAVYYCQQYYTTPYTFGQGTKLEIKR
notes: fully human anti-IL2Rγ antibody, human IgG4
binding ratio: 1
